Tests used:
KlIxr1 [1] = target: T1, KlIxr1 (Kluyveromyces lactis, UniProt Q6CMQ4 1-464); test: EMSA; calf thymus DNA carrier; two retarded bands; FA: 10 mM Tris-HCl pH 8.0, 100 mM KCl, 2 mM DTT, 1 mM EDTA, 500 ug/mL BSA, 25 C, 100 nM DNA; EMSA: 4 C 30 min, 500 nM DNA, 1 ug protein, 1 ug calf thymus DNA, buffer by reference; details: protein: recombinant; tags: N-terminal 6xHis; label: 5'-FAM on forward strand (AJVV009f*); blunt
T1 sequence: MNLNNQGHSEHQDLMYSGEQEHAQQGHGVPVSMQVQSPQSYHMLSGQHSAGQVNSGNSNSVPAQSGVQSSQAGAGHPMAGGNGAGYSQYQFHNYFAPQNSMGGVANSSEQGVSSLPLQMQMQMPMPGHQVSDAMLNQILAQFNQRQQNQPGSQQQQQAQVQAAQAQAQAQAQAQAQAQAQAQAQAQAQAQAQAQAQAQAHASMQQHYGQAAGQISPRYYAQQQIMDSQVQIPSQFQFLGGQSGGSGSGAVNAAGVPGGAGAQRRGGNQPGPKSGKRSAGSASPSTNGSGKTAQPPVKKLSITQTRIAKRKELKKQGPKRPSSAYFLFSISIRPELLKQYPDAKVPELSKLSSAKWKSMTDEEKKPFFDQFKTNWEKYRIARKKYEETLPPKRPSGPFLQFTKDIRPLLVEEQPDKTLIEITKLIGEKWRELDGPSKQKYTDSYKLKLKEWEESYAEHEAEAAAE

KlIxr1 [2] = target: T1, KlIxr1; test: fluorescence anisotropy; 100 nM DNA; FA: 10 mM Tris-HCl pH 8.0, 100 mM KCl, 2 mM DTT, 1 mM EDTA, 500 ug/mL BSA, 25 C, 100 nM DNA; EMSA: 4 C 30 min, 500 nM DNA, 1 ug protein, 1 ug calf thymus DNA, buffer by reference; details: protein: recombinant, tags: N-terminal 6xHis, blunt

B1: KlHEM13 promoter 40-mer (both sites) (dsDNA)
DNA 1: ATCTTGAATGTATGTTGGTTCAGCCTCTATTTCTCTCGTA
DNA 2: TACGAGAGAAATAGAGGCTGAACCAACATACATTCAAGAT
KlIxr1 [1]
  binding result: binds

B2: HEM13A (dsDNA)
DNA 1: ATCTTGAATGTATGTTGGTTCAGCCTCTCC
DNA 2: GGAGAGGCTGAACCAACATACATTCAAGAT
KlIxr1 [2]; label: 5'-FAM on forward strand (AJVV045f*)
  Kd: 15.6 ± 4.27 nM

B3: KlYCF1 promoter (dsDNA)
DNA 1: TTAATTGCAATTGTTACTGTTGATTTTAAA
DNA 2: TTTAAAATCAACAGTAACAATTGCAATTAA
KlIxr1 [2]; label: 5'-FAM on forward strand (AJVV029f*)
  Kd: 105 ± 18.9 nM

B4: HEM13B (dsDNA)
DNA 1: TGGCCCAGCCTCTATTTCTCTCGTACCGGT
DNA 2: ACCGGTACGAGAGAAATAGAGGCTGGGCCA
KlIxr1 [2]; label: 5'-FAM on forward strand (AJVV050f*)
  Kd: 155 ± 38.6 nM

Source: publication PMC8465852, “The HMGB Protein KlIxr1, a DNA Binding Regulator of Kluyveromyces lactis Gene Expression Involved in Oxidative Metabolism, Growth, and dNTP Synthesis”
